Results from patent US20150368338A1 (Janssen / Centocor, published 2015).

Tests used:
Assay in all cases: ProteOn, one antigen concentration
[1] = target: T1, IFN-αJ1 (human, UniProt P01567 24-189)
T1 construct: also called IFN-α7; alpha J1
Text: (§1) To increase the assay throughput, only one concentration of the individual antigen was used.

[2] = target: T2, IFN-αWA (human, UniProt P05015 24-189)
T2 construct: also called IFN-α16; alpha WA
Text: as §1

[3] = target: T3, IFN-αF (human, UniProt P01568 24-189)
T3 construct: also called IFN-α21; alpha F
T3 chain: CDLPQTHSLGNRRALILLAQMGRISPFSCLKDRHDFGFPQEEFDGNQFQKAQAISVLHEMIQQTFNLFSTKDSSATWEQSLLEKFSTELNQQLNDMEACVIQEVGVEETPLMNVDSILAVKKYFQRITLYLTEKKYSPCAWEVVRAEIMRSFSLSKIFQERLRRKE
Text: as §1

[4] = target: T4, IFN-αG (human, UniProt P01569 24-189)
T4 construct: also called IFN-α5; alpha G
Text: as §1

[5] = target: T5, IFN-αC (human, UniProt P01566 24-189)
T5 construct: also called IFN-α10; alpha C
Text: as §1

[6] = target: T6, human IFN-ω (human, UniProt P05000 24-195)
T6 construct: also called interferon omega
Text: as §1

[7] = target: T7, IFN-α4a (human, UniProt P05014 24-189)
T7 construct: also called IFN-αM1
Text: as §1

B1: IFWM371 (antibody, V domains shown)
VH: EVQLVQSGAEVKKPGESLKISCKGSGYSFTSYWIGWVRQMPGKGLEWMGIIDPSDSDTRYSPSFQGQVTISADKSISTAYLQWSSLKASDTAMYYCARHPGLNWAPDFDYWGQGTLVTVSS
VL: not shown
notes: VH IFWH591, VL PH9L4; parental mAb, IgG1/kappa; also called IFWB351
Kd [1]: 4230 pM | Kd [2]: 1390 pM | Kd [3]: 775 pM | Kd [4]: 263 pM | Kd [5]: 865 pM | Kd [6]: 1060 pM

B2: IFWM3291 (antibody, V domains shown)
VH: EVQLVQSGAEVKKPGESLKISCKGSGYSFTSYWIGWVRQMPGKGLEWMGIIDPSDSDTRYSPSFQGQVTISADKSISTAYLQWSSLKASDTAMYYCARHPGLNWAPDFDYWGQGTLVTVSS
VL: DIQMTQSPSSLSASVGDRVTITCRASQSIDEFLNWYQQKPGKAPKLLIYFASSLQSGVPSRFSGSGSGTDFTLTISSLQPEDFATYYCQQAHSFPLTFGQGTKVEIK
notes: VH IFWH591, VL IFWL999; converted mAb; also called IFWB3026
Kd [1]: 122 pM | Kd [2]: 125 pM | Kd [7]: 317 pM | Kd [3]: 51 pM | Kd [4]: 67 pM | Kd [5]: 45 pM | Kd [6]: 28 pM

B3: IFWM3292 (antibody, V domains shown)
VH: EVQLVQSGAEVKKPGESLKISCKGSGYSFTSYWIGWVRQMPGKGLEWMGIIDPSDSDTAYSPSFQGQVTISADKSISTAYLQWSSLKASDTAMYYCARHPGLNWAPDFDYWGQGTLVTVSS
VL: DIQMTQSPSSLSASVGDRVTITCRASQSIDEFLNWYQQKPGKAPKLLIYFASSLQSGVPSRFSGSGSGTDFTLTISSLQPEDFATYYCQQAHSFPLTFGQGTKVEIK
notes: VH IFWH624, VL IFWL999; converted mAb; also called IFWB3027
Kd [1]: 295 pM | Kd [2]: 72 pM | Kd [7]: 613 pM | Kd [3]: 98 pM | Kd [4]: 49 pM | Kd [5]: 123 pM | Kd [6]: 18 pM

B4: IFWM3301 (antibody, V domains shown)
VH: EVQLVQSGAEVKKPGESLKISCKGSGYSFTSYWIGWVRQMPGKGLEWMGIIDPSDSDTRYSPSFQGQVTISADKSISTAYLQWSSLKASDTAMYYCARHPGLNWAPDFDYWGQGTLVTVSS
VL: DIQMTQSPSSLSASVGDRVTITCRASQSIDGSLNWYQQKPGKAPKLLIYFASSLQSGVPSRFSGSGSGTDFTLTISSLQPEDFATYYCQQSYDFPLTFGQGTKVEIK
notes: VH IFWH591, VL IFWL983; converted mAb; also called IFWB3036
Kd [1]: 74 pM | Kd [2]: 79 pM | Kd [7]: 146 pM | Kd [3]: 29 pM | Kd [4]: 29 pM | Kd [5]: 24 pM | Kd [6]: 18 pM

B5: IFWM3302 (antibody, V domains shown)
VH: EVQLVQSGAEVKKPGESLKISCKGSGYSFTSYWIGWVRQMPGKGLEWMGIIDPSDSDTRYSPSFQGQVTISADKSISTAYLQWSSLKASDTAMYYCARHPGLNWAPDFDYWGQGTLVTVSS
VL: DIQMTQSPSSLSASVGDRVTITCRASQSINRFLNWYQQKPGKAPKLLIYAASSLQSGVPSRFSGSGSGTDFTLTISSLQPEDFATYYCQQAIDLPFTFGQGTKVEIK
notes: VH IFWH591, VL IFWL991; converted mAb; also called IFWB3037
Kd [1]: 231 pM | Kd [2]: 168 pM | Kd [7]: 268 pM | Kd [3]: 72 pM | Kd [4]: 98 pM | Kd [5]: 83 pM | Kd [6]: 52 pM

B6: IFWM3303 (antibody, V domains shown)
VH: EVQLVQSGAEVKKPGESLKISCKGSGYSFTSYWIGWVRQMPGKGLEWMGIIDPSDSDTRYSPSFQGQVTISADKSISTAYLQWSSLKASDTAMYYCARHPGLNWAPDFDYWGQGTLVTVSS
VL: DIQMTQSPSSLSASVGDRVTITCRASQSIGSFLNWYQQKPGKAPKLLIYFASSLQSGVPSRFSGSGSGTDFTLTISSLQPEDFATYYCQQSYSIPITFGQGTKVEIK
notes: VH IFWH591, VL IFWL992; converted mAb; also called IFWB3038
Kd [1]: 157 pM | Kd [2]: 168 pM | Kd [7]: 299 pM | Kd [3]: 134 pM | Kd [4]: 82 pM | Kd [5]: 79 pM | Kd [6]: 13 pM

B7: IFWM3304 (antibody, V domains shown)
VH: EVQLVQSGAEVKKPGESLKISCKGSGYSFTSYWIGWVRQMPGKGLEWMGIIDPSDSDTRYSPSFQGQVTISADKSISTAYLQWSSLKASDTAMYYCARHPGLNWAPDFDYWGQGTLVTVSS
VL: DIQMTQSPSSLSASVGDRVTITCRASQSIGSALNWYQQKPGKAPKLLIYFASSLQSGVPSRFSGSGSGTDFTLTISSLQPEDFATYYCQQSYDFPLTFGQGTKVEIK
notes: VH IFWH591, VL IFWL997; converted mAb; also called IFWB3039
Kd [1]: 53 pM | Kd [2]: 92 pM | Kd [7]: 120 pM | Kd [3]: 32 pM | Kd [4]: 37 pM | Kd [5]: 26 pM | Kd [6]: 32 pM

B8: IFWM3305 (antibody, V domains shown)
VH: EVQLVQSGAEVKKPGESLKISCKGSGYSFTSYWIGWVRQMPGKGLEWMGIIDPSDSDTRYSPSFQGQVTISADKSISTAYLQWSSLKASDTAMYYCARHPGLNWAPDFDYWGQGTLVTVSS
VL: DIQMTQSPSSLSASVGDRVTITCRASQSISKFLNWYQQKPGKAPKLLIYFASSLQSGVPSRFSGSGSGTDFTLTISSLQPEDFATYYCQQSNTLPFTFGQGTKVEIK
notes: VH IFWH591, VL IFWL998; converted mAb; also called IFWB3040
Kd [1]: 154 pM | Kd [2]: 201 pM | Kd [7]: 223 pM | Kd [3]: 113 pM | Kd [4]: 127 pM | Kd [5]: 114 pM | Kd [6]: 31 pM

B9: IFWM3307 (antibody, V domains shown)
VH: EVQLVQSGAEVKKPGESLKISCKGSGYSFTSYWIGWVRQMPGKGLEWMGIIDPSDSDTRYSPSFQGQVTISADKSISTAYLQWSSLKASDTAMYYCARHPGLNWAPDFDYWGQGTLVTVSS
VL: DIQMTQSPSSLSASVGDRVTITCRASQSIGDFLNWYQQKPGKAPKLLIYFASSLQSGVPSRFSGSGSGTDFTLTISSLQPEDFATYYCQQALDFPLTFGQGTKVEIK
notes: VH IFWH591, VL IFWL1001; converted mAb; also called IFWB3042
Kd [1]: 305 pM | Kd [2]: 162 pM | Kd [7]: 426 pM | Kd [4]: 58 pM | Kd [5]: 62 pM | Kd [6]: 46 pM

B10: IFWM3312 (antibody, V domains shown)
VH: EVQLVQSGAEVKKPGESLKISCKGSGYSFTSYWIGWVRQMPGKGLEWMGIIDPSDSDTRYSPSFQGQVTISADKSISTAYLQWSSLKASDTAMYYCARHPGLNWAPDFDYWGQGTLVTVSS
VL: DIQMTQSPSSLSASVGDRVTITCRASQSIDGALNWYQQKPGKAPKLLIYFASSLQSGVPSRFSGSGSGTDFTLTISSLQPEDFATYYCQQSFDFPLTFGQGTKVEIK
notes: VH IFWH591, VL IFWL1010; converted mAb; also called IFWB3047
Kd [1]: 68 pM | Kd [2]: 38 pM | Kd [7]: 144 pM | Kd [3]: 20 pM | Kd [4]: 13 pM | Kd [6]: 13 pM

B11: IFWM3313 (antibody, V domains shown)
VH: EVQLVQSGAEVKKPGESLKISCKGSGYSFTSYWIGWVRQMPGKGLEWMGIIDPSDSDTRYSPSFQGQVTISADKSISTAYLQWSSLKASDTAMYYCARHPGLNWAPDFDYWGQGTLVTVSS
VL: DIQMTQSPSSLSASVGDRVTITCRASQSINNFLNWYQQKPGKAPKLLIYFASSLQSGVPSRFSGSGSGTDFTLTISSLQPEDFATYYCQQSFNLPITFGQGTKVEIK
notes: VH IFWH591, VL IFWL1013; converted mAb; also called IFWB3048
Kd [1]: 221 pM | Kd [2]: 155 pM | Kd [7]: 354 pM | Kd [3]: 84 pM | Kd [4]: 118 pM | Kd [6]: 56 pM

B12: IFWM3323 (antibody, V domains shown)
VH: EVQLVQSGAEVKKPGESLKISCKGSGYSFTSYWIGWVRQMPGKGLEWMGIIDPSDSDTRYSPSFQGQVTISADKSISTAYLQWSSLKASDTAMYYCARHPGLNWAPDFDYWGQGTLVTVSS
VL: DIQMTQSPSSLSASVGDRVTITCRASQSITNHLNWYQQKPGKAPKLLIYFASSLQSGVPSRFSGSGSGTDFTLTISSLQPEDFATYYCQQAHNFPLTFGQGTKVEIK
notes: VH IFWH591, VL IFWL1053; converted mAb; also called IFWB3058
Kd [1]: 144 pM | Kd [2]: 121 pM | Kd [7]: 337 pM | Kd [3]: 48 pM | Kd [4]: 94 pM | Kd [6]: 73 pM

B13: IFWM3356 (antibody, V domains shown)
VH: EVQLVQSGAEVKKPGESLKISCKGSGYSFTSYWIGWVRQMPGKGLEWMGIIDPSDSDTAYSPSFQGQVTISADKSISTAYLQWSSLKASDTAMYYCARHPGLNWAPDFDYWGQGTLVTVSS
VL: DIQMTQSPSSLSASVGDRVTITCRASQSISKFLNWYQQKPGKAPKLLIYFASSLQSGVPSRFSGSGSGTDFTLTISSLQPEDFATYYCQQSYDFPITFGQGTKVEIK
notes: VH IFWH624, VL IFWL1026; converted mAb; also called IFWB3091
Kd [6]: 274 pM
